Substrate in the series: CN1CCC[C@@H]1c1cccnc1
Nature of the series: oxygen electrode, initial rates. It is filed as biochemical, Paenarthrobacter nicotinovorans. The following applies: 0.1 M Na-HEPES pH 8.0, 0.1 M NaCl, 25 °C, 250 μM O2, apparent.

For one protein, Km results are on record in PMC6786761.

B1: D-6-hydroxynicotine oxidase (DHNO) (Paenarthrobacter nicotinovorans) (protein)
chain: MSSKLATPLSIQGEVIYPDDSGFDAIANIWDGRHLQRPSLIARCLSAGDVAKSVRYACDNGLEISVRSGGHNPNGYATNDGGIVLDLRLMNSIHIDTAGSRARIGGGVISGDLVKEAAKFGLAAVTGMHPKVGFCGLALNGGVGFLTPKYGLASDNILGATLVTATGDVIYCSDDERPELFWAVRGAGPNFGVVTEVEVQLYELPRKMLAGFITWAPSVSELAGLLTSLLDALNEMADHIYPSVFVGVDENRAPSVTVCVGHLGGLDIAERDIARLRGLGRTVSDSIAVRSYDEVVALNAEVGSFEDGMSNLWIDREIAMPNARFAEAIAGNLDKFVSEPASGGSVKLEIEGMPFGNPKRTPARHRDAMGVLALAEWSGAAPGSEKYPELARELDAALLRAGVTTSGFGLLNNNSEVTAEMVAEVYKPEVYCRLAAVKREYDPENRFRHNYNIDPEGS
A word on the Km: it is the substrate concentration at which the rate is half of its maximum. B1: the Km amounted to 840 ± 120 µM.
